This is an account of results in patent US20260103689.

Data set [1] has as its system SB100X Sleeping Beauty transposase (synthetic construct). Kind of data set: cell_activity. The following applies: HepG2 colony-forming transposition; integrates at TA.
The subject of data set [2] is SB100X Q124C transposase Q124C (synthetic construct). Kind of data set: cell_activity. Particulars: HepG2 colony-forming transposition; hyperactive at 500 and 2500 ng plasmid.

Substance “SB transposon pT2/Puro (puro-tagged, terminal inverted repeats)” displayed a transposition activity (colony formation, fold vs SB100X) (fold (reference)) in data set [1] of 1. This substance gave a transposition activity (colony formation, fold vs SB100X) (fold vs SB100X) in data set [2] of 2.
